Experimental data reported in the supplement of paper PMC12042874.
± gives the uncertainty stated by the source.

Test: amyloid nucleation score (Sup35N fusion, yeast selection) (log enrichment); library NNK2; higher = more nucleation; inactive = no reads after selection
How it was run: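 On medium lacking adenine and uracil, psi-negative yeast expressing peptides of 20 random codons fused to Sup35N were grown 7 days at 30°C after a 24-hour induction with 100 μM copper sulfate. Illumina sequencing of input and output plasmid inserts gave the reads, and sequences under 100 input reads were excluded. The nucleation score is the DiMSum log enrichment of output over input reads, centred on the mode score of non-aggregating sequences.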

Q: For SSGFQNSSTNGTDAQS, which amyloid nucleation score is on record?
A: 0.101 ± 0.76

Q: With SSGGGYWLLWVE as the substance, how does the amyloid nucleation score read?
A: -0.559 ± 0.76

Q: For SSGTCTSHSLVLIHMGLRYV, which amyloid nucleation score is on record?
A: -0.54 ± 0.54

Q: Which amyloid nucleation score does the source give for SSGVRPNNLVSFEFHCLELG here?
A: -0.28 ± 0.54

Q: With SSIVEDGLTLLNGGNRIDGY as the substance, how does the amyloid nucleation score read?
A: 0.445 ± 0.31

Q: Which amyloid nucleation score does the source give for SSKKCDNRGLMLWVRGILVA here?
A: -0.059 ± 0.24

Q: For SSLDWWSCSGFLNKQQIKSN, which amyloid nucleation score is on record?
A: 1.08 ± 0.12

Q: Which amyloid nucleation score does the source give for SSLHACA here?
A: 2.21 ± 0.29

Q: With SSLRLDIVRTVHYSQIPEDA as the substance, how does the amyloid nucleation score read?
A: 1.04 ± 0.33

Q: Which amyloid nucleation score does the source give for SSLVGFERGRSMGRGMWVDL here?
A: 0.041 ± 0.63

Q: For SSLWVWYLIVD, which amyloid nucleation score is on record?
A: 0.145 ± 0.21

Q: Which amyloid nucleation score does the source give for SSMIMTGFLYTYYGVIRVVD here?
A: inactive

Q: Which amyloid nucleation score does the source give for SSPAACYMR here?
A: -1.69 ± 1.1

Q: Which amyloid nucleation score does the source give for SSPKSWNILS here?
A: 0.106 ± 0.48

Q: For SSPLPQSCERNRVLRTRLGF, which amyloid nucleation score is on record?
A: 0.874 ± 0.45

Q: With SSRYPVIWESFVPNWTNSHF as the substance, how does the amyloid nucleation score read?
A: -1.22 ± 1.1

Q: With SSSFFYTHVNHHLVLYDGKA as the substance, how does the amyloid nucleation score read?
A: -0.712 ± 1.1

Q: With SSSFHKYRRALWKRKRTWVV as the substance, how does the amyloid nucleation score read?
A: 5.63 ± 0.081

Q: For SSTIGVGRSLFLLMFYRDLI, which amyloid nucleation score is on record?
A: -1.44 ± 1

Q: Which amyloid nucleation score does the source give for SSVVFCSNPGVYGSSRWTSV here?
A: 0.492 ± 0.41

Q: For SSVVISRVPTARICSEEKGP, which amyloid nucleation score is on record?
A: inactive

Q: With SSYLTIPIIRVFLR as the substance, how does the amyloid nucleation score read?
A: 0.126 ± 0.8

Q: For SSYRLDAWVKKLFSLSQRKG, which amyloid nucleation score is on record?
A: -0.052 ± 0.32

Q: Which amyloid nucleation score does the source give for STARRRCYFGFGLGQSSAAI here?
A: -0.891 ± 1.1

Q: For STCLTLSMRLLA, which amyloid nucleation score is on record?
A: 3.84 ± 0.078

Q: Which amyloid nucleation score does the source give for STFSYGCSSTGAFCRLLCRM here?
A: 0.516 ± 0.64

Q: With STGMRGKYVTFFCSSVIFRQ as the substance, how does the amyloid nucleation score read?
A: 7.2 ± 0.06

Q: For STGSWTTVKLGREGAILHAL, which amyloid nucleation score is on record?
A: -0.407 ± 0.45

Q: With STHSGLSMT as the substance, how does the amyloid nucleation score read?
A: 0.877 ± 0.27

Q: For STLNSYS, which amyloid nucleation score is on record?
A: -0.42 ± 0.61

Q: Which amyloid nucleation score does the source give for STMKC here?
A: -0.29 ± 0.56

Q: For STMREQRRRAWRKDCDVIKV, which amyloid nucleation score is on record?
A: 1.84 ± 0.22

Q: With STPDVVEAWFL as the substance, how does the amyloid nucleation score read?
A: 0.039 ± 0.46

Q: With STPPLILQSYV as the substance, how does the amyloid nucleation score read?
A: -1.17 ± 0.75

Q: With STRKCFLMLILTRFGMCC as the substance, how does the amyloid nucleation score read?
A: 0.603 ± 0.38

Q: With STTLIEFSLYIRYYTND as the substance, how does the amyloid nucleation score read?
A: 4.64 ± 0.084

Q: Which amyloid nucleation score does the source give for SVALSQVLEKVWESVPKELN here?
A: 0.62 ± 0.62

Q: With SVFCRKLTLVAGGDARRDCK as the substance, how does the amyloid nucleation score read?
A: 0.497 ± 0.57

Q: Which amyloid nucleation score does the source give for SVFLSKDIKGVNQCGGLWLS here?
A: 0.296 ± 0.25

Q: With SVFMIYKTVSGGHAYFVVQQ as the substance, how does the amyloid nucleation score read?
A: 4.97 ± 0.072

Q: Which amyloid nucleation score does the source give for SVFRND here?
A: -0.28 ± 0.3

Q: Which amyloid nucleation score does the source give for SVIKQNC here?
A: 0.547 ± 0.47

Q: With SVILILSVGLLTIYLSRNG as the substance, how does the amyloid nucleation score read?
A: 2.76 ± 0.078

Q: For SVKYFLDSVDVWIDIISAFF, which amyloid nucleation score is on record?
A: 0.256 ± 0.55

Q: Which amyloid nucleation score does the source give for SVLANIMLVVVGNSGKYRSG here?
A: 0.627 ± 0.74

Q: Which amyloid nucleation score does the source give for SVLMGG here?
A: -0.223 ± 0.54

Q: For SVLMSCD, which amyloid nucleation score is on record?
A: 0.135 ± 0.65

Q: For SVNMFKFRTDSSFCDLTLCH, which amyloid nucleation score is on record?
A: 0.423 ± 0.8

Q: Which amyloid nucleation score does the source give for SVNYMAFWKVPTCGLQGGKG here?
A: -0.097 ± 0.76

Q: With SVRMYWAGLLSENKRYNSQS as the substance, how does the amyloid nucleation score read?
A: 3.89 ± 0.12

Q: Which amyloid nucleation score does the source give for SVRVVDDGKTGGVGGTSQR here?
A: 0.767 ± 0.8

Q: For SVSDLLLIYVIESSCSHGFK, which amyloid nucleation score is on record?
A: 4.72 ± 0.072

Q: Which amyloid nucleation score does the source give for SVSRSYGEVRLEHTVLETCR here?
A: 0.619 ± 0.64

Q: With SVTGPILICVSLIASFRRSM as the substance, how does the amyloid nucleation score read?
A: 4.27 ± 0.061

Q: With SVVGRYEYIILGTRAPGTSR as the substance, how does the amyloid nucleation score read?
A: 0.272 ± 0.5

Q: For SVVSGWWVIIFLYSHGVSIE, which amyloid nucleation score is on record?
A: 0.093 ± 0.8

Q: Which amyloid nucleation score does the source give for SVWWSSNFINPPDFCNM here?
A: -1.19 ± 1.1

Q: Which amyloid nucleation score does the source give for SVYPTSGRYYLYRSLIFVGD here?
A: -0.57 ± 0.78

Q: Which amyloid nucleation score does the source give for SVYRGASKVSRCRNVKTGR here?
A: 0.132 ± 0.32

Q: With SVYVANYGYPRSGLN as the substance, how does the amyloid nucleation score read?
A: 7.02 ± 0.078

Q: With SWGLPKVVIGGLQMRLEVGA as the substance, how does the amyloid nucleation score read?
A: 0.754 ± 0.39

Q: For SWHFKSKHSCVFFRCEYVVS, which amyloid nucleation score is on record?
A: -0.373 ± 1

Q: For SWHPRKRWNVCERF, which amyloid nucleation score is on record?
A: 0.273 ± 0.49

Q: For SWHVVQAVIDVVDREV, which amyloid nucleation score is on record?
A: 0.967 ± 0.22

Q: With SWKSFKRPGTRCRGQYYYMS as the substance, how does the amyloid nucleation score read?
A: -0.266 ± 1

Q: For SWLIDLTRHSFLI, which amyloid nucleation score is on record?
A: -1.25 ± 0.78

Q: With SWMAQCLPRYTHIADQSDGS as the substance, how does the amyloid nucleation score read?
A: 0.238 ± 0.17

Q: With SWMSGVVITETHTALGSWVN as the substance, how does the amyloid nucleation score read?
A: 0.442 ± 0.37

Q: With SWNMIQSTIFLPCNLGDYTV as the substance, how does the amyloid nucleation score read?
A: 5.678 ± 0.048

Q: For SWNSV, which amyloid nucleation score is on record?
A: -0.442 ± 0.41

Q: For SWRAYSSF, which amyloid nucleation score is on record?
A: 2.73 ± 0.081

Q: With SWRWKATAT as the substance, how does the amyloid nucleation score read?
A: -1.09 ± 0.45

Q: Which amyloid nucleation score does the source give for SWVEGRLDGVFWRLVLFTEN here?
A: 0.433 ± 0.74

Q: With SWVFVWLSH as the substance, how does the amyloid nucleation score read?
A: -0.256 ± 1.1

Q: With SYDVLCILRS as the substance, how does the amyloid nucleation score read?
A: -0.547 ± 0.76

Q: With SYKGALLSEQIL as the substance, how does the amyloid nucleation score read?
A: 0.114 ± 0.4

Q: With SYLHGDNQLGLSGASFRSRW as the substance, how does the amyloid nucleation score read?
A: inactive

Q: Which amyloid nucleation score does the source give for SYLVLIHKALSFGRTISDHP here?
A: -0.467 ± 0.29

Q: For SYMCKAHKRLIIGGKWINGW, which amyloid nucleation score is on record?
A: -0.031 ± 0.53

Q: With SYRRKYSCRLESINTCAVLC as the substance, how does the amyloid nucleation score read?
A: -0.302 ± 0.47

Q: For SYRSVYYLVMGFPIGHH, which amyloid nucleation score is on record?
A: -1.67 ± 1

Q: Which amyloid nucleation score does the source give for SYTSGYLLVYPFVNIVVFYP here?
A: -1.64 ± 1.1

Q: For SYVMFSIMEH, which amyloid nucleation score is on record?
A: 0.354 ± 0.65

Q: For SYYDGCQS, which amyloid nucleation score is on record?
A: 0.646 ± 0.49

Q: With TAGWIFEWTFGPVYVFNSPW as the substance, how does the amyloid nucleation score read?
A: 8.016 ± 0.061
